Test results published in patent publication US20210061900A1 (ASTUTE MEDICAL, published 2021).

T1: C-C motif chemokine 14 (CCL14), human (human, UniProt Q16627 20-93)
T1 construct: Residues 20-93 are the mature CCL14 it describes, with signal peptide 1-19; also called HCC-1; NCC-2
T1 sequence: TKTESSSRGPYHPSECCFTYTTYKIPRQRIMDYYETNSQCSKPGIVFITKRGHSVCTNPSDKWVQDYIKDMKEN


What was measured:
[1] = biological target: T1, C-C motif chemokine 14 (CCL14), human; assay: lateral flow sandwich, CCL14 5 ng/mL; strip antibody, with 4H1/4K3 conjugate
Procedure: (§1) Various antibodies of the invention were tested for their ability to form sandwich complexes in a lateral flow format. Urine was used as a sample matrix for CCL14 antigen standards. One member of the antibody pair (the “strip” antibody) was immobilized onto a nitrocellulose membrane, and the other member of the antibody pair was prepared as a labeled conjugate with a label that is detectable by the ASTUTE 140® meter system for reading to the test strip.
(§2) To further understand the ability of the antibodies of the present invention to pair, a matrix of various antibodies was analyzed at a single CCL14 concentration of 5 ng/mL in a 100 μL sample volume. The solid phase “strip” antibody was applied to nitrocellulose in 3 μL of a 0.25 μg/mL solution. The conjugate was mixed with the sample volume to a concentration of 10 μg/mL.

[2] = biological target: T1, C-C motif chemokine 14 (CCL14), human; assay: lateral flow sandwich, CCL14 5 ng/mL; labelled conjugate, with 2H3/2K1 on the strip
Procedure: as §1, §2

[3] = biological target: T1, C-C motif chemokine 14 (CCL14), human; assay: binding to arrays of CCL14-derived peptides (epitope mapping)
Procedure: Antibodies were diluted in buffer and applied to the peptide library array. Each antibody tested was optimized for the array by testing different blocking conditions and sample concentration. […] Epitope mapping was precluded in the case of antibodies showing high binding signals throughout the array.

Row | binding result [1] | binding result [2] | Binder | further results
1 | binds | – | 3H1/3K1 (antibody, V domains shown, Rabbit monoclonal IgG expressed in HEK cells; also called 3H1 heavy chain / 3K1 light chain) VH: QSVRESEGGLFKPADTLTLTCTVSGFSLSSDAISWVRQAPGNGLEWIGAIDFGGSAYYASWAKSRSTITRNTNENTVTLKMTSLTAADTATYFCARSPSFGIVDRLDLWGQGTLVTVSS VL: AVVLTQTASPVSAPVGGTVTIKCQASEDIDSYLAWYQQKPGQPPKLLIYDVFDLSSGVPSRFKGSGSGTEFTLTISDLECADAATYYCQSYYYVLGTTSTDHNSFGGGTEVVVK | –
2 | binds | – | 31H1/31K1 (antibody, V domains shown, Rabbit monoclonal IgG expressed in HEK cells; also called 31H1 heavy chain / 31K1 light chain) VH: QSVRESEGGLFKPADTLTLTCTVSGFSLSSDAISWVRQAPGNGLEWIGAIDFGGSAYYASWAKSRSTITRNTNENTVTLKMTSLTAADTATYFCARSPSFGIVDRLDLWGQGTLVTVSS VL: AVVLTQTASPVSAPVGGTVTIKCQASEDIDSYLAWYQQKPGQPPKLLIYDVFDLSSGVPSRFKGSGSGTEFTLTISDLECADAATYYCQSYYYVLGTTSTDHNSFGGGTEVVVK | –
3 | binds | – | 12H2/12K1 (antibody, V domains shown, Rabbit monoclonal IgG expressed in HEK cells; also called 12H2 heavy chain / 12K1 light chain) VH: QSVRESEGGLFKPADTLTLTCTVSGFSLSSDAISWVRQAPGNGLEWIGAIDFGGSAYYASWAKSRSTITRNTNENTVTLKMTSLTAADTATYFCARSPSFGIVDRLDLWGQGTLVTVSS VL: AVVLTQTASPVSAPVGGTVTIKCQASEDIDSYLAWYQQKPGQPPKLLIYDVFDLSSGVPSRFKGSGSGTEFTLTISDLECADAATYYCQSYYYVLGTTSTDHNSFGGGTEVVVK | –
4 | binds | – | 2H3/2K1 (antibody, V domains shown, Rabbit monoclonal IgG expressed in HEK cells; also called 2H3 heavy chain / 2K1 light chain) VH: QEQLKESGGGLVQPGGSLKLSCKASGFAFSSDYMSWVRQAPGKGLEWIGYIDPIFGSTAYASWVNGRFTISSHNAQNTLYLHLNSLTAADTATYFCARDKDYSSGWGGYFNLWGQGTLVTVSS VL: AIVMTQTPASVEAAVGGTVTIKCQASQSINSYLAWYQQKPGQPPRLLIYEASTLASGVPSRFKGSGSGTQFTLTISDLECADAATYYCQTYYYSVDSSVGSNAFGGGTEVVVK | –
5 | – | binds | 17H2/17K1 (antibody, V domains shown, Rabbit monoclonal IgG expressed in HEK cells; Used as a labelled conjugate; also called 17H2 heavy chain / 17K1 light chain) VH: QSVKESEGGLFKPADTLTLTCTVSGFSLSSYAINWVRQAPGEGLEYIGWISDVGTAYYASWAKSRSTITRNTDENTVTLKMTSLTAADTATYFCAGGDGSYSNYWVSDIWGQGTLVTVSS VL: AVVLTQTASPVSAPVGGTVTVKCQASQTINSRLAWYQQKQGQPPKLLIYEASTLASGVPSRFKGSGSGTEYTLTIRGVECADAATYSCQEYADENIFGGGTEVVVK | –
6 | – | binds | 18H1/18K1 (antibody, V domains shown, Rabbit monoclonal IgG expressed in HEK cells; also called 18H1 heavy chain / 18K1 light chain) VH: QSVKESEGGLFKPADTLTLTCTVSGFSLSSYAINWVRQAPGEGLEYIGWISDVGTAYYASWAKSRSTITRNTDENTVTLKMTSLTAADTATYFCAGGDGSYSNYWVSDIWGQGTLVTVSS VL: AVVLTQTASPVSAPVGGTVTVKCQASQTINSRLAWYQQKQGQPPKLLIYEASTLASGVPSRFKGSGSGTEYTLTIRGVECADAATYSCQEYADENIFGGGTEVVVK | –
7 | – | binds | 19H2/19K3 (antibody, V domains shown, Rabbit monoclonal IgG expressed in HEK cells; also called 19H2 heavy chain / 19K3 light chain) VH: QSVKESEGGLFKPADTLTLTCTVSGFSLSSFAINWVRQAPGEGLEYIGWISDVGTAYYASWAKSRSTITRNADENTVTLKMTSLTAADTATYFCAGGDGSYSNYWVSDIWGQGTLVTVSS VL: AVVLTQTASPVSAPVGGTVTVKCQASQTINNRLAWYQQKQGQPPKLLIYEASKLASGVPSRFKGSGSGTEYTLTIRGVECADAATYSCQEYADENIFGGGTEVVVK | –
8 | – | binds | 4H1/4K3 (antibody, V domains shown, Rabbit monoclonal IgG expressed in HEK cells; Used as a labelled conjugate; also called 4H1 heavy chain / 4K3 light chain) VH: QSVKESEGGLFKPADTLTLTCTVSGFSLSSFAINWVRQAPGEGLEYIGWISDVGTAYYASWAKSRSTITRNTDENTATLKMTSLTAADTATYFCAGGDGSYSNYWVSDIWGQGTLVTVSS VL: AVVLTQTASPVSAPVGGTVTVKCQASQTINNRLAWYQQKQGQPPKLLIYEASKLASGVPSRFKGSGSGTEYTLTIRGVECADAATYSCQEYADENIFGGGTEVVVK | –
9 | – | – | 10H3/10K1 (antibody, V domains shown, Rabbit monoclonal IgG expressed in HEK cells; also called 10H3 heavy chain / 10K1 light chain) VH: QSVKESEGGLFKPADTLTLTCTVSGFSLSSYAINWVRQAPGEGLEYIGWISDVGTAYYASWAKSRSTITRNTDENTVTLKMTSLTAADTATYFCAGGDGSYSNYWVSDIWGQGTLVTVSS VL: AVVLTQTPSLVSAPVGGTVTVKCRASQTINSRLAWYQQKQGQPPKLLIYEASKLASGVPSRFKGSGSGTEYTLTIRGVECADAATYSCQEYADENIFGGGTEVVVK | binding result [3]: binds
10 | – | – | 25H2/25K1 (antibody, V domains shown, Rabbit monoclonal IgG expressed in HEK cells; also called 25H2 heavy chain / 25K1 light chain) VH: QSLEESGGDLVKPGASLTLTCTASRFDFSSAYYMCWVRQAPGKGLEWIACIYAGSSGGTYYATWAKGRFTISKTSSTTVTLQLTSLTAADTATYFCAGSTGNSRGSYFNLWGQGTLVTVSS V domain: AQVLTQTPSPVSAAVGGTVTINCQSSQSVYDNNWLAWYQQKLGQPPKLVIYDASKLASGVPSRFKGSGSGTHFTLTISELQCDDSATYYCQGEYSDIWGFGGGTEVVVK | binding result [3]: binds
